Laboratory results published in patent US10196445 (Bristol-Myers Squibb, dated 2019).

Target: CTLA4 CD3 zeta on the 58 α-β-CTLA4 CD3 zeta expressing cell line (human)
Test: cell-based or functional assay

Sequence of CTLA4 CD3 zeta on the 58 α-β-CTLA4 CD3 zeta expressing cell line (human) (P16410 36-161): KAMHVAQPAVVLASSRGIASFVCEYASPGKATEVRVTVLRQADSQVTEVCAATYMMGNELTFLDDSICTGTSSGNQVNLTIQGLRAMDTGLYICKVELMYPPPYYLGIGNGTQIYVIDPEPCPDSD

B1: ipilimumab (antibody, human IgG1, kappa, V domains shown)
VH: QVQLVESGGGVVQPGRSLRLSCAASGFTFSSYTMHWVRQAPGKGLEWVTFISYDGNNKYYADSVKGRFTISRDNSKNTLYLQMNSLRAEDTAIYYCARTGWLGPFDYWGQGTLVTVSS
VL: not shown
EC50 of NK92 cell-mediated specific lysis (calcein release) of 58 α-β-CTLA4 CD3 zeta cells: 0.13 ng/mL

B2: non-fucosylated ipilimumab (antibody, human IgG1, kappa, V domains shown)
VH: QVQLVESGGGVVQPGRSLRLSCAASGFTFSSYTMHWVRQAPGKGLEWVTFISYDGNNKYYADSVKGRFTISRDNSKNTLYLQMNSLRAEDTAIYYCARTGWLGPFDYWGQGTLVTVSS
VL: not shown
modifications: non-fucosylated (no fucose on the Asn297-linked oligosaccharide)
EC50 of NK92 cell-mediated specific lysis (calcein release) of 58 α-β-CTLA4 CD3 zeta cells: 0.0056 ng/mL
